Test [1] concerns the target recombinant P. xylostella BJSP-1-GST fusion protein (basic juvenile hormone-suppressible protein 1-like) (P. xylostella). As to the kind of experiment: ELISA; plates coated with BJSP-1-GST (8 μg/well, 4°C overnight); increasing concentrations of Cry7Ab4 toxic core added; detected with anti-His antibody. For orientation: ELISA stands for enzyme-linked immunosorbent assay.

Test [2] addresses recombinant His-tagged Cry7Ab4 toxic core (residues 1-637) (Bacillus thuringiensis). As to the kind of experiment: ELISA; plates coated with Cry7Ab4 toxic core (8 μg/well, 4°C overnight); increasing concentrations of BJSP-1-GST added; detected with anti-GST antibody.

As to “recombinant His-tagged Cry7Ab4 toxic core (residues 1-637) (domain or fragment)”, the concentration at which binding was saturated in test [1] was 16 µg/mL. For “recombinant P. xylostella BJSP-1-GST fusion protein (basic juvenile hormone-suppressible protein 1-like) (natural protein)”, the concentration at which binding was saturated in test [2] is 64 µg/mL.
